{
  "source": "the supplement of paper PMC10724198",
  "note": "± gives the standard deviation of the averaged measurements.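 Also: PSI is a weighted mean of sequencing reads over stability bins, variants kept only with over 10 reads, mCherry proximal and sfGFP distal, peptide attached via GGGS linker.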",
  "data": [
    {"tested_on": "Saccharomyces cerevisiae", "experiment": "protein stability index of tFT-peptide fusion (C-terminal peptide) (PSI (0-1 scale)); higher = more stable (slower turnover)", "details": "genetic background: wild type; temperature: 30 C", "values": [
      {"sequence": "LDGAGFLLSWYH", "protein stability index": "0.749 ± 0.013"},
      {"sequence": "VAGATGRWIGHG", "protein stability index": "0.6771 ± 0.0045"},
      {"sequence": "ATSRGFLQNLMA", "protein stability index": "0.55737 ± 0.00018"},
      {"sequence": "FTLRFGYISDLD", "protein stability index": "0.736 ± 0.21"},
      {"sequence": "CSRTSKKMSIGG", "protein stability index": "0.613 ± 0.019"},
      {"sequence": "DCKTCVVGCELF", "protein stability index": "0.697 ± 0.043"},
      {"sequence": "GCGRYWGVVRGC", "protein stability index": "0.66 ± 0.037"},
      {"sequence": "PPLPPLPLSLSI", "protein stability index": "0.742 ± 0.093"},
      {"sequence": "NFQLIKKHSKNN", "protein stability index": "0.63552 ± 0.00029"},
      {"sequence": "LPLSPRCFSLLG", "protein stability index": "0.6774 ± 0.0023"},
      {"sequence": "KFYIIKRLSGVE", "protein stability index": "0.64 ± 0.029"},
      {"sequence": "CVERVGSTPMDS", "protein stability index": "0.607 ± 0.053"},
      {"sequence": "SSPSPAPPPPRP", "protein stability index": "0.738 ± 0.069"},
      {"sequence": "GVWTPGPIWGRG", "protein stability index": "0.7134 ± 0.00084"},
      {"sequence": "IPPNPPPPNTIA", "protein stability index": "0.557 ± 0.0097"},
      {"sequence": "EDNRTSEMFVFY", "protein stability index": "0.753 ± 0.14"},
      {"sequence": "PAPPLRVAPSRI", "protein stability index": "0.67 ± 0.014"},
      {"sequence": "ASFHPIAPVSTP", "protein stability index": "0.6862 ± 0.0011"},
      {"sequence": "WGTVIYGVGSGQ", "protein stability index": "0.691 ± 0.036"},
      {"sequence": "LSFAGLPFCPGL", "protein stability index": "0.722 ± 0.13"},
      {"sequence": "GQDNSEVLGSVQ", "protein stability index": "0.668 ± 0.12"},
      {"sequence": "SLSDKRATKGED", "protein stability index": "0.65 ± 0.018"},
      {"sequence": "QLDRRKDSLLRH", "protein stability index": "0.746 ± 0.017"},
      {"sequence": "GRYCDKRLGIVG", "protein stability index": "0.699 ± 0.011"},
      {"sequence": "PLPYSPPHPVPP", "protein stability index": "0.701 ± 0.029"},
      {"sequence": "PCLASHTVDSLP", "protein stability index": "0.665 ± 0.013"},
      {"sequence": "NYDTIYGLHLYT", "protein stability index": "0.73 ± 0.015"},
      {"sequence": "PDCLSLCFSLFP", "protein stability index": "0.664 ± 0.0071"},
      {"sequence": "KADVSIRYGINN", "protein stability index": "0.714 ± 0.074"},
      {"sequence": "TGSRGPHRKPPD", "protein stability index": "0.691 ± 0.0077"},
      {"sequence": "VGLGGGVRLGRL", "protein stability index": "0.786 ± 0.09"},
      {"sequence": "CPNLWSRFASRC", "protein stability index": "0.716 ± 0.0085"},
      {"sequence": "PPPPPPPALPSL", "protein stability index": "0.6668 ± 0.0034"},
      {"sequence": "ARPGSVIAQLRV", "protein stability index": "0.598 ± 0.031"},
      {"sequence": "AFLDISIPSSSL", "protein stability index": "0.6857 ± 0.0063"},
      {"sequence": "LRFGLRCPLYHL", "protein stability index": "0.799 ± 0.11"},
      {"sequence": "VEFGAPGFVEEW", "protein stability index": "0.734 ± 0.021"},
      {"sequence": "RPLSDDTDCPCI", "protein stability index": "0.748 ± 0.13"},
      {"sequence": "KPPNRQCLYDAL", "protein stability index": "0.721 ± 0.094"},
      {"sequence": "KKKRIRNEYKKR", "protein stability index": "0.68 ± 0.0071"},
      {"sequence": "TPSPAPPTPFTP", "protein stability index": "0.659 ± 0.023"},
      {"sequence": "SEAKRMSGSSAN", "protein stability index": "0.635 ± 0.041"},
      {"sequence": "PSPPAPPPSPLP", "protein stability index": "0.823 ± 0.15"},
      {"sequence": "RGRGEVRGVGGG", "protein stability index": "0.698 ± 0.067"},
      {"sequence": "KNTKKKNRKKKN", "protein stability index": "0.7419 ± 0.0026"},
      {"sequence": "IDMGEQTGKMIN", "protein stability index": "0.72 ± 0.012"},
      {"sequence": "LPYSPPSLTLPR", "protein stability index": "0.666 ± 0.086"},
      {"sequence": "TLSSVSEKVVHL", "protein stability index": "0.675 ± 0.019"},
      {"sequence": "PNESFLLPELNH", "protein stability index": "0.711 ± 0.0083"},
      {"sequence": "GVAWGAGVGMMW", "protein stability index": "0.732 ± 0.025"},
      {"sequence": "LFSLFFPTCFRF", "protein stability index": "0.557 ± 0.0092"},
      {"sequence": "PCRPPSILAPHP", "protein stability index": "0.739 ± 0.0097"},
      {"sequence": "GGVVLTWLGENC", "protein stability index": "0.717 ± 0.025"},
      {"sequence": "CVAFLAGIVSFL", "protein stability index": "0.525 ± 0.019"},
      {"sequence": "PPRNPAALPTPI", "protein stability index": "0.718 ± 0.11"},
      {"sequence": "TIVSFYVRFLSG", "protein stability index": "0.583 ± 0.15"},
      {"sequence": "KKTYQQKIEEVV", "protein stability index": "0.782 ± 0.14"},
      {"sequence": "TSPTIPSTPFSN", "protein stability index": "0.704 ± 0.087"},
      {"sequence": "WGWGVLRRRVGA", "protein stability index": "0.76 ± 0.082"},
      {"sequence": "PPSPPPPLPLLP", "protein stability index": "0.661 ± 0.077"},
      {"sequence": "PVPRRPLLPLPP", "protein stability index": "0.663 ± 0.02"},
      {"sequence": "RIWKKKRYNEKS", "protein stability index": "0.681 ± 0.12"},
      {"sequence": "QFIPIRSIIMRG", "protein stability index": "0.73 ± 0.038"},
      {"sequence": "LDARYRSSVGFK", "protein stability index": "0.68876 ± 0.00018"},
      {"sequence": "RDRGWSRGRQVH", "protein stability index": "0.662 ± 0.015"},
      {"sequence": "SPLSPLPPALSL", "protein stability index": "0.695 ± 0.046"},
      {"sequence": "PYWYPRASRGAL", "protein stability index": "0.699 ± 0.043"},
      {"sequence": "PPPPPPPDPVPP", "protein stability index": "0.645 ± 0.039"},
      {"sequence": "ALCEVLSKSFEF", "protein stability index": "0.6617 ± 0.0025"},
      {"sequence": "GFEVAFSCSSWW", "protein stability index": "0.716 ± 0.038"},
      {"sequence": "GKEWRGSGGMRR", "protein stability index": "0.646 ± 0.014"},
      {"sequence": "PTPPRRPLSFSP", "protein stability index": "0.653 ± 0.057"},
      {"sequence": "LLLLRPPLGASF", "protein stability index": "0.711 ± 0.016"},
      {"sequence": "VGGFRVLCVGLG", "protein stability index": "0.613 ± 0.04"},
      {"sequence": "TFLPAPSPTSPP", "protein stability index": "0.724 ± 0.032"},
      {"sequence": "GIDVGCEWYQGG", "protein stability index": "0.698 ± 0.037"},
      {"sequence": "HPHRSAIIAGNH", "protein stability index": "0.72 ± 0.0083"},
      {"sequence": "GSSCRFGDNTVG", "protein stability index": "0.738 ± 0.046"},
      {"sequence": "LRPPSCCPLEIQ", "protein stability index": "0.705 ± 0.076"},
      {"sequence": "CEERGLLPTQYS", "protein stability index": "0.6686 ± 0.006"},
      {"sequence": "GAMLAGRHGWGL", "protein stability index": "0.715 ± 0.04"},
      {"sequence": "GQVGDRVVSVGL", "protein stability index": "0.694 ± 0.028"},
      {"sequence": "NKNVGLKKSEKS", "protein stability index": "0.711 ± 0.019"},
      {"sequence": "PPSPLPSPPPTF", "protein stability index": "0.718 ± 0.025"},
      {"sequence": "RVDFRLPVYLGI", "protein stability index": "0.61 ± 0.015"},
      {"sequence": "SDVCVYVIRDIG", "protein stability index": "0.565 ± 0.068"},
      {"sequence": "SRKSDTMPSYPL", "protein stability index": "0.791 ± 0.26"},
      {"sequence": "RPRIPLNSSSLS", "protein stability index": "0.74 ± 0.037"},
      {"sequence": "WPLVGLIGVPGR", "protein stability index": "0.668 ± 0.035"},
      {"sequence": "DLWDDVAYVIVA", "protein stability index": "0.619 ± 0.039"},
      {"sequence": "EYEDNRLDQHKV", "protein stability index": "0.725 ± 0.04"},
      {"sequence": "AGGVCHVSSLLA", "protein stability index": "0.64 ± 0.021"},
      {"sequence": "GGVTEGPGWCVR", "protein stability index": "0.735 ± 0.017"},
      {"sequence": "QRGDDFHDTSPA", "protein stability index": "0.708 ± 0.0082"},
      {"sequence": "YLNVVSSFYTCS", "protein stability index": "0.684 ± 0.02"},
      {"sequence": "PLPVLLLPGHLP", "protein stability index": "0.733 ± 0.054"},
      {"sequence": "AGANPRVGTFWV", "protein stability index": "0.664 ± 0.032"},
      {"sequence": "GWEVGRGRLGVV", "protein stability index": "0.696 ± 0.095"},
      {"sequence": "LVLSRSGPFSHL", "protein stability index": "0.7 ± 0.073"},
      {"sequence": "PLALPLHLPLPP", "protein stability index": "0.667 ± 0.034"},
      {"sequence": "FCCFGGSFFSLR", "protein stability index": "0.715 ± 0.02"}
    ]}
  ]
}
